Assay results published in the supplement of paper PMC7877785.
± gives the uncertainty stated by the source.

Assay: self-splicing fitness, log relative to wild type (ln ratio); higher = more splicing; Tetrahymena group I intron in knt gene, E. coli kanamycin selection, DiMSum; sequences stand for … in CUCUCU…GGAGGGAAAAGUUAUCAGGCAUGCACCUGGUAGCUAGUCUUUAAACCAAUAGAUUGCAUCGGUUUAAAAGGCAAGACCGUCAAAUUGCGGGAAAGGGGUCAACAGCCGUUCAGUACCAAGUCUCAGGGGAAACUUUGAGAUGGCCUUGCAAAGGGUAUGGUAAUAAGCUGACGGACAUGGUCCUAACCACGCAGCCAAGUCCUAAGUCAACAGAUCUUCUGUUGAUAUGGAUGCAGUUCACAGACUAAAUGUCGGUCGGGGAAGAUGUAUUCUUCUCAUAAGAUAUAGUCGGACCUCUCCUUAAUGGGAGCUAGCGGAUGAAGUGAUGCAACACUGGAGCCGCUGGGAACUAAUUUGUAUGCGAAAGUAUAUUGAUUAGUUUUGGAGUACUCGUGGUCG
Procedure, shortened: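 Library with all eight P1ex-region intron nucleotides randomised, intron inside the knt kanamycin-resistance gene on pET-22b(+), in E. coli BL21(DE3). Cells grew overnight at 37°C or 30°C on LB agar with or without 25 μg/mL kanamycin (plus 100 μg/mL carbenicillin, 50 μM IPTG, 0.2% rhamnose), in six replicate transformations. Pooled colonies were amplicon-sequenced on Illumina HiSeq 2500. DiMSum fitness is the error-weighted combination of wild-type-normalised replicate fold changes, kanamycin versus none.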

| Sequence | self-splicing fitness (ln) (30 °C) | self-splicing fitness (ln) (37 °C) |
| --- | --- | --- |
| CGUCAGCAAUAUUACGCCGG | -1.69 ± 0.12 | -1.27 ± 0.17 |
| CGUCAGCAAUAUUACGCUAA | -2.28 ± 0.18 | -0.0328 ± 0.15 |
| CGUCAGCAAUAUUACGCUCG | -2.69 ± 0.18 | -1.63 ± 0.15 |
| CGUCAGCAAUAUUACGCUUA | -2.18 ± 0.23 | -1.14 ± 0.17 |
| CGUCAGCAAUAUUACGGACC | -0.189 ± 0.17 | 0.292 ± 0.17 |
| CGUCAGCAAUAUUACGGAGG | -1.93 ± 0.1 | -1.57 ± 0.16 |
| CGUCAGCAAUAUUACGGCAG | -0.866 ± 0.064 | -0.287 ± 0.077 |
| CGUCAGCAAUAUUACGGGCC | -1.25 ± 0.087 | -0.797 ± 0.11 |
| CGUCAGCAAUAUUACGGUUC | -3.67 ± 0.31 | -0.0181 ± 0.15 |
| CGUCAGCAAUAUUACGUAAC | -3.29 ± 0.35 | -2.29 ± 0.26 |
| CGUCAGCAAUAUUACGUUCU | -1.39 ± 0.098 | -0.462 ± 0.11 |
| CGUGAGCAAUAUUACGAAUA | -2.8 ± 0.28 | -2.87 ± 0.32 |
| CGUGAGCAAUAUUACGACAG | -0.792 ± 0.092 | -0.318 ± 0.1 |
| CGUGAGCAAUAUUACGACAU | -3.809 ± 0.03 | -2.19 ± 0.039 |
| CGUGAGCAAUAUUACGAGCG | -3.57 ± 0.3 | -2.52 ± 0.29 |
| CGUGAGCAAUAUUACGAGCU | -2.79 ± 0.17 | -2.99 ± 0.25 |
| CGUGAGCAAUAUUACGAUGG | -0.492 ± 0.1 | -0.139 ± 0.13 |
| CGUGAGCAAUAUUACGAUUA | – | -2.93 ± 0.25 |
| CGUGAGCAAUAUUACGCAAA | – | -1.84 ± 0.46 |
| CGUGAGCAAUAUUACGCGGC | -2.91 ± 0.24 | -3.19 ± 0.28 |
| CGUGAGCAAUAUUACGCGGG | -1.74 ± 0.25 | – |
| CGUGAGCAAUAUUACGCUGU | -3.2 ± 0.26 | -2.43 ± 0.26 |
| CGUGAGCAAUAUUACGCUUG | -2.56 ± 0.11 | -2.07 ± 0.13 |
| CGUGAGCAAUAUUACGGAGC | -2.97 ± 0.36 | – |
| CGUGAGCAAUAUUACGGAUG | -1.55 ± 0.075 | -0.983 ± 0.094 |
| CGUGAGCAAUAUUACGGCAA | -2.81 ± 0.2 | -1.43 ± 0.19 |

| Sequence | self-splicing fitness (ln) (30 °C) | self-splicing fitness (ln) (37 °C) |
| --- | --- | --- |
| CGUGAGCAAUAUUACGGCCU | -2.22 ± 0.23 | -3.57 ± 0.46 |
| CGUGAGCAAUAUUACGGUAC | -3.78 ± 0.35 | -1.63 ± 0.31 |
| CGUGAGCAAUAUUACGUAUG | -1.37 ± 0.11 | -0.0658 ± 0.12 |
| CGUGAGCAAUAUUACGUCAA | -2.01 ± 0.24 | -1.35 ± 0.2 |
| CGUGAGCAAUAUUACGUCGU | – | -2.72 ± 0.28 |
| CGUGAGCAAUAUUACGUCUC | -3.22 ± 0.21 | -2.29 ± 0.19 |
| CGUGAGCAAUAUUACGUGAA | – | -1.17 ± 0.22 |
| CGUGAGCAAUAUUACGUUAC | -3.96 ± 0.43 | – |
| CGUUAGCAAUAUUACGAACA | -0.595 ± 0.16 | 0.0081 ± 0.16 |
| CGUUAGCAAUAUUACGAGCG | -3.69 ± 0.21 | -2.63 ± 0.21 |
| CGUUAGCAAUAUUACGAGGU | -4.3 ± 0.29 | -2.49 ± 0.23 |
| CGUUAGCAAUAUUACGAUCU | -1.14 ± 0.091 | -0.132 ± 0.12 |
| CGUUAGCAAUAUUACGCCAA | -1.97 ± 0.45 | – |
| CGUUAGCAAUAUUACGCGUG | -1.3 ± 0.099 | -1.36 ± 0.089 |
| CGUUAGCAAUAUUACGGAUG | -1.85 ± 0.11 | -1.37 ± 0.14 |
| CGUUAGCAAUAUUACGGCAA | -2.91 ± 0.2 | -1.1 ± 0.15 |
| CGUUAGCAAUAUUACGGCGU | -3.75 ± 0.31 | -0.556 ± 0.19 |
| CGUUAGCAAUAUUACGGCUG | -0.2 ± 0.093 | -0.439 ± 0.12 |
| CGUUAGCAAUAUUACGGGGA | – | -2.28 ± 0.3 |
| CGUUAGCAAUAUUACGGGUC | -3.39 ± 0.41 | -2.01 ± 0.24 |
| CGUUAGCAAUAUUACGGUCA | -0.526 ± 0.14 | -0.197 ± 0.14 |
| CGUUAGCAAUAUUACGGUCC | – | -1.08 ± 0.48 |
| CGUUAGCAAUAUUACGGUUU | -3.84 ± 0.34 | -2.44 ± 0.21 |
| CGUUAGCAAUAUUACGUAAG | -0.652 ± 0.1 | -0.0337 ± 0.14 |
| CGUUAGCAAUAUUACGUAUA | -2.85 ± 0.28 | -2.49 ± 0.31 |
